Test results: patent publication US5863776A, “Method of preparing apoenzyme” (Research Development Foundation, priority 1996, dated 1999)

Experiments:
MAO B [1] = assay: [^14 C] FAD incorporation into wild-type or mutant MAO B in Rib^- COS-7 cells (immunoprecipitation, fluorography); type: binding, human; conditions: about 59 kDa; equal MAO B concentrations
Experimental: (§1) Mutagenesis was carried out by the method of Deng and Nickoloff (22) using a Transformer Site-directed Mutagenesis kit (Clontech). Glu in position 34 was replaced with Asp (E34D), Gln (E34Q), or Ala (E34A), and Val in position 10 was replaced with Ile (V10I) as described by Kwan et al. (18).
(§2) Wild-type or mutant MAO B cDNAs were transiently transfected into COS-7 cells by electroporation (23) as previously described (18). Briefly, Rib^+ - or Rib^- COS-7 cells were harvested during late log phase growth and resuspended to a concentration of 3.1×10^6 cells/ml in either riboflavin-containing or riboflavin-free medium, respectively. Wild-type or mutant MAO B cDNAs ([…]) were added to 0.8 ml of cell suspension. […] Electroporation was carried out in a Bio-Rad Gene Pulser with a setting of 250 V and 500 μF. Cells were resuspended in 15 ml of riboflavin-containing or riboflavin-free medium and incubated at 37° C. with 5% CO2. Transfected COS-7 cells were harvested at 48 hours and homogenized in a lysis solution containing 20 mM Tris-HCl, 1 mM EDTA, 0.5 mM PMSF, pH 8.0. The homogenate was diluted with an equal volume of the same buffer supplemented with 300 mM NaCl to obtain a 150 mM final NaCl concentration. Triton X-100 (Pierce) was added to the lysate to give a final concentration of 0.25%, and the samples were allowed to stir for 50 min. at 4° C. to extract MAO B from the outer mitochondrial membrane. After Triton extraction, the lysate was centrifuged at 1300×g for 5 min. at 4° C. to remove insoluble cell debris.
(§3) Transfected Rib^+ - or Rib^- COS-7 cells were homogenized, and extracted with 0.25% Triton X-100 for 50 minutes at 4° C. The cell lysates were centrifuged at 1300×g for 5 minutes, and an aliqout of each supernatant was analyzed for MAO B concentration by ELISA. All supernatants were then adjusted to equal MAO B concentration and incubated with polyclonal goat anti-MAO B antibody (10 μg) overnight at 4° C. Protein-G Sepharose beads (Pierce) were added (50 μl) and incubation was continued for 3 hours. The protein-G Sepharose/goat antibody/MAO B immmunocomplex was collected by centrifugation at 10,000×g for 20 seconds and washed 6 times with 150 μl of 20 mM Tris buffer, pH 8.0. The immunocomplex was then dissolved in SDS-PAGE sample buffer and analyzed by Western blot or fluorography.
(§4) The immunoprecipitated proteins (obtained as described above) were subjected to electrophoresis in a 10% SDS-polyacrylamide gel and examined by Western blotting as previously described (18). The immunoprecipitated proteins (obtained as described above) were subjected to electrophoresis in a 10% SDS-polyacrylamide gel. The SDS-PAGE gel was fixed by soaking in 7% acetic acid, 10% methanol, 83% H2 O for 1 hour, and then processed for fluorography as described by Bonner and Laskey (27). The dried gel was exposed to Kodak X-OMAT AR film at -80° C. for 2 weeks.
(§5) The expressed wild-type and variant MAO Bs were adjusted to equal concentrations using ELISA before immunoprecipitation, and then analyzed by fluorography. The amount of incorporation of [^14 C] […] FAD was incorporated into the enzyme.

MAO B [2] = biological target: T1, MAO B (Homo sapiens, UniProt P27338, E34D); assay: as above; type: binding; conditions: densitometer
T1 construct: expressed in transfected cells; host or cells: Rib+ COS-7, transient
T1 sequence (P27338 2-520 E34D): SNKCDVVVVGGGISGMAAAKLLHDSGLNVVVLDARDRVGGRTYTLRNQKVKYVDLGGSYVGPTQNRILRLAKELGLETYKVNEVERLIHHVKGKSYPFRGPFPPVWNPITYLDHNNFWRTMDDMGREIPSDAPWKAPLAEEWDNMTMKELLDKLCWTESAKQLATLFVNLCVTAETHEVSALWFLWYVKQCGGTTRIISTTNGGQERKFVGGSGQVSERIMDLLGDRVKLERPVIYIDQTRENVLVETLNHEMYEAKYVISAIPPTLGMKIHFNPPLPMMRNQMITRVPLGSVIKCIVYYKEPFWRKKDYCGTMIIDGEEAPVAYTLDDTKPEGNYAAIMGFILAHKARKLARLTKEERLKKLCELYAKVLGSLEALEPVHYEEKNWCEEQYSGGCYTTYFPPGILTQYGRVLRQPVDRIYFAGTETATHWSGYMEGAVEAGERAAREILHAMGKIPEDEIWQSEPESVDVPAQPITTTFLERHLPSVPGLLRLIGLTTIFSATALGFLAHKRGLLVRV
Experimental: as §1, §2, §3, §4, §5

MAO B [3] = biological target: T1, MAO B; conditions: cited from earlier work

B1: E34D: MAO B with Glu in position 34 replaced with Asp (protein, UniProt P27338 2-520, looked up, variant E34D)
Amine oxidase …: SNKCDVVVVGGGISGMAAAKLLHDSGLNVVVLDARDRVGGRTYTLRNQKVKYVDLGGSYVGPTQNRILRLAKELGLETYKVNEVERLIHHVKGKSYPFRGPFPPVWNPITYLDHNNFWRTMDDMGREIPSDAPWKAPLAEEWDNMTMKELLDKLCWTESAKQLATLFVNLCVTAETHEVSALWFLWYVKQCGGTTRIISTTNGGQERKFVGGSGQVSERIMDLLGDRVKLERPVIYIDQTRENVLVETLNHEMYEAKYVISAIPPTLGMKIHFNPPLPMMRNQMITRVPLGSVIKCIVYYKEPFWRKKDYCGTMIIDGEEAPVAYTLDDTKPEGNYAAIMGFILAHKARKLARLTKEERLKKLCELYAKVLGSLEALEPVHYEEKNWCEEQYSGGCYTTYFPPGILTQYGRVLRQPVDRIYFAGTETATHWSGYMEGAVEAGERAAREILHAMGKIPEDEIWQSEPESVDVPAQPITTTFLERHLPSVPGLLRLIGLTTIFSATALGFLAHKRGLLVRV
MAO B [1]
  [^14 C] FAD incorporation (band on fluorogram): faint band
MAO B [2]
  [^14 C] FAD incorporation, percent of wild-type: about 10%
MAO B [3]; Rib^+ COS-7 cells
  reduction in activity: 93%
MAO B [3]
  activity, % of wild-type activity: 7%
